In paper PMC6318259, “Distinct Stabilities of the Structurally Homologous Heptameric Co-Chaperonins GroES and gp31” (Journal of the American Society for Mass Spectrometry, 2018):

B1: GroES (natural protein, Escherichia coli)
chain: MNIRPLHDRVIVKRKEVETKSAGGIVLTGSAAAKSTRGEVLAVGNGRILENGEVKPLDVKVGDIVIFNDGYGVKSEKIDNEEVLIMSESDILAIVEA
notes: GroES, co-chaperonin of Escherichia coli; homo-heptamer of 10.4 kDa subunits; The printed subunit mass of 10.4 kDa fits the whole protein; also called GroES heptamer; co-chaperonin GroES; source: over-expressed in E. coli strain MC1009, purified as described previously
B2: gp31 (natural protein, bacteriophage T4)
chain: MSEVQQLPIRAVGEYVILVSEPAQAGDEEVTESGLIIGKRVQGEVPELCVVHSVGPDVPEGFCEVGDLTSLPVGQIRNVPHPFVALGLKQPKEIKQKFVTCHYKAIPCLYK
notes: gp31, co-chaperonin encoded by bacteriophage T4, structural homologue of GroES; heptamer of identical 12 kDa subunits; The printed subunit mass of 12 kDa fits the whole protein; also called gp31 heptamer; source: over-expressed in E. coli strain MC1009, purified as described previously

Target: the molecule itself
Test: native MS; 10 μM monomer in 10 mM aqueous ammonium acetate, pH 6.8; nano-electrospray, modified Orbitrap (Exactive Plus / Q-Exactive EMR); oligomeric state of the protein with itself

| Protein | stoichiometry N |
| --- | --- |
| B1 | 7 |
| B2 | 7 |
